Measurements from patent US20240182536A1 (MURAL ONCOLOGY, published 2024).

T1: mouse IL-18 binding protein (mouse, UniProt Q9Z0M9 29-193)
T1 construct: also called Mouse IL18BP; Mouse IL-18BP
T1 sequence (looked up): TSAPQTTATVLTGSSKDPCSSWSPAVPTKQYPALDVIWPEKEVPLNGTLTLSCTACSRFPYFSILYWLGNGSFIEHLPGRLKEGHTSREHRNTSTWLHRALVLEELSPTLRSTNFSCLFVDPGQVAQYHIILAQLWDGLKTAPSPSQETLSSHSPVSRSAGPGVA

T2: mouse IL-18 receptor alpha (mouse, UniProt Q61098 20-326, limits assumed)
T2 construct: also called Mouse IL18Ra; mouse IL-18R alpha
T2 sequence (looked up): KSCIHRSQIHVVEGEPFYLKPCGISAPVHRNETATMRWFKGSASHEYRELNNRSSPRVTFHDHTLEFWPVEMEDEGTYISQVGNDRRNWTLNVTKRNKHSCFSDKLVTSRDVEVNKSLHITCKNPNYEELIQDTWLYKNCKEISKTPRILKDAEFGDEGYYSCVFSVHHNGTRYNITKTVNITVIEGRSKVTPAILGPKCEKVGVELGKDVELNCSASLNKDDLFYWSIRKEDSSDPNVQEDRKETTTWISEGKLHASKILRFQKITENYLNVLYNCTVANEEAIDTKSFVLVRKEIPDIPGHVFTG

B1: mouse IL-18 G3T/L59K on monoFc scaffold (Fc fusion, not shown: small tags and cut ends)
chain: NFTRLHSTTAVIRNINDQVLFVDKRQPVFEDMTDIDQSASEPQTRLIIYMYKDSEVRGKAVTLSVKDSKMSTLSSKNKIISFEEMDPPENIDDIQSDLIFFQKRVPGHNKMEFESSLYEGHFLASQKEDDAFKLILKKKDENGDKSVMFTLTNLHQSNGGPSVFLFPPKPKDTLMISRTPEVTCVVVDVSHEDPEVKFNWYVDGVEVHNAKTKPREEQYNSTYRVVSVLTVLHQDWLNGKEYKCKVSNKALPAPIEKTISKAKGQPREPQVYTLPPSREEMTKNQVNLTCLVKGFYPSDIAVEWESNGQPENNYKTTPPVLDSDGSFFLNSTLTVDKSRWQQGNVFSCSVMHEALHNHYTQKSLSLS
B2: mouse IL-18 G3V/L59M on monoFc scaffold (Fc fusion, not shown: small tags and cut ends)
chain: NFVRLHSTTAVIRNINDQVLFVDKRQPVFEDMTDIDQSASEPQTRLIIYMYKDSEVRGMAVTLSVKDSKMSTLSSKNKIISFEEMDPPENIDDIQSDLIFFQKRVPGHNKMEFESSLYEGHFLASQKEDDAFKLILKKKDENGDKSVMFTLTNLHQSNGGPSVFLFPPKPKDTLMISRTPEVTCVVVDVSHEDPEVKFNWYVDGVEVHNAKTKPREEQYNSTYRVVSVLTVLHQDWLNGKEYKCKVSNKALPAPIEKTISKAKGQPREPQVYTLPPSREEMTKNQVNLTCLVKGFYPSDIAVEWESNGQPENNYKTTPPVLDSDGSFFLNSTLTVDKSRWQQGNVFSCSVMHEALHNHYTQKSLSLS
B3: mouse IL-18 G3V/L59R on monoFc scaffold (Fc fusion, not shown: small tags and cut ends)
chain: NFVRLHSTTAVIRNINDQVLFVDKRQPVFEDMTDIDQSASEPQTRLIIYMYKDSEVRGRAVTLSVKDSKMSTLSSKNKIISFEEMDPPENIDDIQSDLIFFQKRVPGHNKMEFESSLYEGHFLASQKEDDAFKLILKKKDENGDKSVMFTLTNLHQSNGGPSVFLFPPKPKDTLMISRTPEVTCVVVDVSHEDPEVKFNWYVDGVEVHNAKTKPREEQYNSTYRVVSVLTVLHQDWLNGKEYKCKVSNKALPAPIEKTISKAKGQPREPQVYTLPPSREEMTKNQVNLTCLVKGFYPSDIAVEWESNGQPENNYKTTPPVLDSDGSFFLNSTLTVDKSRWQQGNVFSCSVMHEALHNHYTQKSLSLS
B4: mouse IL-18 G3V/L59K on monoFc scaffold (Fc fusion, not shown: small tags and cut ends)
chain: NFVRLHSTTAVIRNINDQVLFVDKRQPVFEDMTDIDQSASEPQTRLIIYMYKDSEVRGKAVTLSVKDSKMSTLSSKNKIISFEEMDPPENIDDIQSDLIFFQKRVPGHNKMEFESSLYEGHFLASQKEDDAFKLILKKKDENGDKSVMFTLTNLHQSNGGPSVFLFPPKPKDTLMISRTPEVTCVVVDVSHEDPEVKFNWYVDGVEVHNAKTKPREEQYNSTYRVVSVLTVLHQDWLNGKEYKCKVSNKALPAPIEKTISKAKGQPREPQVYTLPPSREEMTKNQVNLTCLVKGFYPSDIAVEWESNGQPENNYKTTPPVLDSDGSFFLNSTLTVDKSRWQQGNVFSCSVMHEALHNHYTQKSLSLS
B5: mouse IL-18 G3T/H6K/L59K on monoFc scaffold (Fc fusion, not shown: small tags and cut ends)
chain: NFTRLKSTTAVIRNINDQVLFVDKRQPVFEDMTDIDQSASEPQTRLIIYMYKDSEVRGKAVTLSVKDSKMSTLSSKNKIISFEEMDPPENIDDIQSDLIFFQKRVPGHNKMEFESSLYEGHFLASQKEDDAFKLILKKKDENGDKSVMFTLTNLHQSNGGPSVFLFPPKPKDTLMISRTPEVTCVVVDVSHEDPEVKFNWYVDGVEVHNAKTKPREEQYNSTYRVVSVLTVLHQDWLNGKEYKCKVSNKALPAPIEKTISKAKGQPREPQVYTLPPSREEMTKNQVNLTCLVKGFYPSDIAVEWESNGQPENNYKTTPPVLDSDGSFFLNSTLTVDKSRWQQGNVFSCSVMHEALHNHYTQKSLSLS

Key:
[1] = biological target: T1, mouse IL-18 binding protein; test: Octet BLI, monoFc scaffold
Procedure: (§1) Octet 96red instrument was used to determine affinities of IL18 proteins to BP or receptors. 5-10 ug/ml analyte proteins were used for loading on Sartorius tips (AHC or SA). […] 120-180 s loading, 200 s association and 800 s dissociation were used for kinetics. 3-7 data points were used to calculate affinities.
(§2) Several mouse variants were next tested for binding affinity to mouse IL-18R alpha and mouse IL-18BP.

[2] = biological target: T2, mouse IL-18 receptor alpha; test: Octet BLI, monoFc scaffold
Procedure: as §1, §2

Row | Binder | binding result [1] | Kd [2] | Kd [1]
1 | B1 | no binding | 12.3 nM | 
2 | B2 |  | 17.4 nM | 2.47 nM
3 | B3 | no binding | 51.5 nM | 
4 | B4 | no binding | 14.5 nM | 
5 | B5 | no binding | 12.8 nM | 
